The target of one data set is T1, wild-type 4HPA3H (Escherichia coli, UniProt Q57160).
T1 construct: made in house; host or cells: E. coli BL21(DE3)
Put plainly: In vitro hydroxylation by the 4HPA3H/PrnF/FDH system, wild-type 4HPA3H. In kind it is biochemical, E. coli. Particulars: substrate 1 mM, purified wild-type 4HPA3H, optimized conditions. The protocol:
(§1) Purified 4HPA3H (A) or variants (B) (Y301I depicted in white and Y301F/S462A depicted in black) were used for conversion of substrates (1 mM) under optimized conditions. The numbers correspond to substrates as explained in the legend for FIG. 1 above.
(§2) In order to develop an effective and low-cost enzyme system for in vitro hydroxylation, several parameters of the 4HPA3H reaction with respect to maximum reaction rate were optimized. By means of a spectrophotometric assay (Example 4 above), the inventors screened different buffer systems and optimized the concentration of the components p-coumaric acid (1 cf. FIG. 1), FAD, NADH and methanol, the incubation temperature and oxygen transfer (i.e. by variation of the shaking frequency) (optimum conditions are given in the Experimental Section). […] In contrast to the cofactors, the accompanying cofactor recycling redox enzymes PrnF and FDH were used in excess due to their high specific activity.
In accordance with the whole-cell transformation experiments (FIG. 3), product yields in the conversion by the wild-type 4HPA3H (FIG. 8A) ranged from high (1, 13, 15 cf. FIG. 1) or moderate (5 cf. FIG. 1) to low (9, 11 cf. FIG. 1), whereas ferulic acid 3 was not oxidized. […] However, in contrast to the experiments with life biocatalysts […] conversion of naringenin (7 cf. FIG. 1) by the wild-type 4HPA3H (25% yield) was observed (which might be explained by increased substrate availability). The hydroxycarbazole (11) was not accepted by the double variant Y301F/S462A, probably because of the high substrate concentration which seems to reflect strong […] inhibition—an effect which has previously been observed for other 4HPA3H enzymes. Noteworthy, HPLC analysis of the reaction products confirmed product specificity.

Data set [1] concerns the target T2, 4HPA3H double variant Y301F/S462A (Escherichia coli, UniProt Q57160, S462A/Y301F).
T2 construct: made in house; host or cells: E. coli BL21(DE3)
Put plainly: In vitro hydroxylation by the 4HPA3H/PrnF/FDH system, variant Y301F/S462A. Format: biochemical, E. coli. The following applies: substrate 1 mM, purified Y301F/S462A. The protocol: as §1, §2
(§3) In accordance with the whole-cell transformation experiments (FIG. 3), product yields in the conversion by the wild-type 4HPA3H (FIG. 8A) ranged from high (1, 13, 15 cf. FIG. 1) or moderate (5 cf. FIG. 1) to low (9, 11 cf. FIG. 1), whereas ferulic acid 3 was not oxidized. […]

A further data set concerns the target T3, 4HPA3H (Escherichia coli, UniProt Q57160).
T3 construct: expressed in transfected cells; host or cells: E. coli BL21(DE3)
Description: Whole-cell hydroxylation, cells expressing wild-type 4HPA3H. Format: cell-based, E. coli. Particulars: BL21(DE3) cells expressing wild-type 4HPA3H.

In data set [2] the target is T4, 4HPA3H-Y301F/S462A (SEQ ID NO:175) (Escherichia coli, UniProt Q57160, S462A/Y301F).
T4 construct: made in house; host or cells: E. coli BL21(DE3)
Description: Solid phase-based cascade (Talon column), hydroxylation of naringenin to eriodictyol. Format: biochemical, E. coli. The protocol: Stock solutions of […] and eriodictyol (10 mM each) in methanol were produced (for the structure of the compounds, see FIG. 9). They were diluted using acetonitrile for obtaining the desired concentrations (70, 110, 140, 210 and 280 μM). 10 μl of each sample was injected in to a HPLC machine and calibration curves were produced for both substances (data not shown).
First the catalysis was performed using 9 mU oxidase 4HPA3H in a 10 ml reaction comprising 1 ml 1M Tris/HCl, pH 7.5; 25 μl of a 10 mM NADH solution, 20 μl of a 5 mM FAD solution and 1 ml formate solution using 9 mU 4HPA3H-Y301F/S462A (SEQ ID NO:175) and 0.57 mU PrnF-reductase (SEQ ID NO:176) and 640 mU FDH (SEQ ID NO:177). Subsequently the enzymes were mixes, 100 μl 1M Tris/HCl solution, pH 7.5, was added and ddH2O (deionized, reverse osmosis) was added ad 2 ml. The enzyme solution was at least 5 times passed through a 1 ml Talon column with a flow rate of 0.1 ml/min^−1 to let the proteins bind to the column in a homogenous way. The evaluation of the complete binding of the proteins to the column material was measured via Bradford assay. Then, the column was washed once with 50 mM Tris/HCl, pH 7.5 (=basis buffer), and connected to a peristaltic pump.
The constituents of each reaction mixture were transferred to a suitable sterile flask, which was then connected to a peristaltic pump. During reaction, the reaction mixture was slightly stirred with the help of a magnetic stirrer. Using a flow rate of 1 ml/min, the system was washed with the basis buffer for 2 min and a control sample was taken. Only then, the substrate was added, here 200 μM naringenin (from a 10 mM stock solution in methanol). The substrate was pumped over the Talon column having the enzymes bound thereto with a flow rate of 1 ml/min at maximum. During the time range from 0-1310 min, the sample extraction was performed in samples of 35 μl each. Said samples were mixed with an equal volume of acetonitrile and were immediately injected into a HPLC device (20 μl each). The evaluation was conducted with the help of a calibration curve done at the beginning of the experiment and thereby measuring and calculating the peak areas (see FIG. 10).
The same assay was performed using 35 mU hydroxylase/1 ml column volume and the concentration of the co-enzymes for regeneration of the cofactor was increased equivalently.

In data set [3] the target is two component non-P450 hydroxylase HpaBC (Escherichia coli, UniProt Q57160). Particulars: native wild-type HpaBC; proceeds incomplete; cited from earlier work.
The test system of the next data set is 4HPA3H enzymes. The following applies: previous study; cited from earlier work.
For a further data set, the system named is 4HPA3H/PrnF/FDH system. Description: Dependence of in vitro conversion of p-coumaric acid on FAD concentration. Format: biochemical. As to the method:
The reactions were to performed using the 4HPA3H/PrnF/FDH system.
as §2

Data set [4] in a line: Whole-cell hydroxylation, variants on substrates 5, 9 and 11. Format: cell-based. Particulars: whole cells.
A short description of data set [5]: Whole-cell hydroxylation, variants compared with wild-type on well-accepted substrates. Particulars: whole cells.
Description: Substrates (200 μM) as shown in FIG. 1 were added to suspensions of bacterial cells expressing 4HPA3H or its single (A) and double variants (B). After incubation for 16 hours, catechols and residual substrates were extracted and analyzed by HPLC
Suspensions of the cells were tested for hydroxylation of a panel of eight phenolic compounds (FIG. 1) which belong to different classes of natural products: we included (I) phenolic acids and ketones such as p-coumaric acid (1), ferulic acid (3), rheosmin (15) and p-hydroxybenzoic acid (9), (II) polycyclic compounds such as the hydroxycoumarin umbelliferone (13), the stilbene resveratrol (5) and the flavonoid naringenin (7). […] 4HPA3H was also tested for conversion of 4-methoxycinnamic acid and 4-aminocinnamic acid.
The nature of data set [6]: In vitro catechol complex formation assay (4HPA3H/PrnF/FDH), p-coumaric acid. In kind it is biochemical. Particulars: purified enzyme, optimized conditions, PrnF and FDH. As to the method:
(A) Standard curve for the determination of caffeic acid (2 cf. FIG. 1). Mixtures of caffeic acid and p-coumaric acid (1) were incubated with FeCl3 and analyzed at 595 nm as described in the Experimental Section. (B) Time course of the oxidation of p-coumaric acid (1 cf. FIG. 1) by wild-type 4HPA3H. The enzymatic reaction was performed under optimized conditions, and produced caffeic acid (2 cf. FIG. 1) was detected as Fe^3+ complex. Data are the means±standard deviations obtained from three measurements.
(§4) For assaying 4HPA3H in microplate scale, 4HPA3H was incubated with PrnF, the substrate p-coumaric acid (1 cf. FIG. 1) and the formate dehydrogenase (FDH) from Candida boidinii. Similar as reported in our previous publication, this enzyme was introduced for regeneration of the costly cofactor NADH: NAD^+ formed during the reaction is recycled with sodium formate, yielding a sequential three-enzyme cascade for hydride transfer (FIG. 2). The conversion of p-coumaric acid (1 cf. FIG. 1) was measured spectrophotometrically by a previously established catechol complexation method (M. Dippe, B. Weigel, R. Heinke, T. Vogt, L. A. Wessjohann, 2014), which could be applied for quantitative determination of the product caffeic acid (see FIG. 6). […] However, similar to the data obtained from whole-cell biotransformations (see Example 2), these variants were beneficial in the conversion of ferulic acid (3 cf. FIG. 1), which is also reflected by comparably high conversion rates (4HPA3H-Y301F/S462A: 1.06±0.31 nmol min^−1 mg^−1, 4HPA3H-Y301I: 4.49±0.20 nmol min^−1 mg^−1).
(§5) In order to develop an effective and low-cost enzyme system for in vitro hydroxylation, several parameters of the 4HPA3H reaction with respect to maximum reaction rate were optimized. […]

Data set [7] in a line: In vitro assay (4HPA3H/PrnF/FDH), conversion of ferulic acid. Format: biochemical. Particulars: purified enzyme, PrnF and FDH. The protocol: as §4, §5
A short description of data set [8]: In vitro hydroxylation, mutant enzymes on challenging substrates 3 and 7. Format: biochemical. Particulars: substrate 1 mM, purified enzymes. The protocol: as §1, §2, §3
Data set [9] in a line: Reduction of FAD with NADH by purified PrnF. The following applies: purified protein. Format: biochemical. From the text: In order to characterize 4HPA3H and its variants with respect to specific activity, the development of a convenient in vitro assay was necessary. As the enzymes rely on a reductase component which provides the cofactor FADH2 (see FIG. 2), the inventors focused on screening of a suitable reductase enzyme in the first step. The flavin reductase HpaC from E. coli—the endogenous partner of 4HPA3H—was not accessible due to formation of mainly insoluble protein under a variety of expression conditions (data not shown).

Substitutions are numbered along the chain they refer to. In names and notes the source's numbering stands.

For `Oc1ccc2c(c1)[nH]c1ccccc12` [Compound 11, 2-hydroxycarbazole], on wild-type 4HPA3H, the “product yield” value is recorded as “low”. Also, in data set [1], the “acceptance as substrate” value is “not accepted”.
On to `O=C1C[C@@H](c2ccc(O)cc2)Oc2cc(O)cc(O)c21` [Compound 7, naringenin], for which the “acceptance as substrate” value at 4HPA3H was “not accepted”. The “remaining concentration of naringenin” value in data set [2] (9 mU enzyme/1 ml column, 200 μM naringenin, after 1290 min) amounted to 29.3 µM; in [2] (35 mU hydroxylase/1 ml column volume, after 240 min) it was 33.3 µM. For the same molecule, in data set [3], the “conversion of naringenin to eriodictyol” value is < 10%.
Turning to `O=C(O)C=Cc1ccccc1` [cinnamic acid], the “hydroxylation of substrate” value in the data set with 4HPA3H enzymes is recorded as “unable to hydroxylate”.
As for `Cc1cc2nc3c(=O)[nH]c(=O)nc-3n(C[C@H](O)[C@H](O)[C@H](O)COP(=O)(O)OP(=O)(O)OC[C@H]3O[C@@H](n4cnc5c(N)ncnc54)[C@H](O)[C@@H]3O)c2cc1C` [FAD, flavin adenine dinucleotide], in the data set on 4HPA3H/PrnF/FDH system, the “effect of high concentrations on the redox system” value is given as “inhibitory”.

B1: 4HPA3H-Y301F: 4HPA3H single variant Y301F (protein, listed as Escherichia coli)
chain: MKPEDFRASTQRPFTGEEYLKSLQDGREIYIYGERVKDVTTHPAFRNAAASVAQLYDALHKPEMQDSLCWNTDTGSGGYTHKFFRVAKSADDLRQQRDAIAEWSRLSYGWMGRTPDYKAAFGCALGANPGFYGQFEQNARNWYTRIQETGLYFNHAIVNPPIDRHLPTDKVKDVYIKLEKETDAGIIVSGAKVVATNSALTHYNMIGFGSAQVMGENPDFALMFVAPMDADGVKLISRASYEMVAGATGSPYDYPLSSRFDENDAILVMDNVLIPWENVLIYRDFDRCRRWTMEGGFARMFPLQACVRLAVKLDFITALLKKSLECTGTLEFRGVQADLGEVVAWRNTFWALSDSMCSEATPWVNGAYLPDHAALQTYRVLAPMAYAKIKNIIERNVTSGLIYLPSSARDLNNPQIDQYLAKYVRGSNGMDHVQRIKILKLMWDAIGSEFGGRHELYEINYSGSQDEIRLQCLRQAQNSGNMDKMMAMVDRCLSEYDQDGWTVPHLHNNDDINMLDKLLK
modifications: 4HPA3H HpaB Y301F
notes: 4HPA3H single variant Y301F
With B1, the “conversion of the substrates 5, 9 and 11” value in data set [4] is on record as “superior”. The “activity towards substrates 1, 13, 15 compared with wild-type enzyme” value in data set [5] was “comparably active”.

B2: 4HPA3H-Y301I: 4HPA3H single variant with isoleucine at position 301 (protein, listed as Escherichia coli)
chain: B1 chain with F301I
modifications: 4HPA3H HpaB Y301I
notes: 4HPA3H single variant with isoleucine at position 301
Take B2: the “specific activity towards p-coumaric acid (1)” value in data set [6] came to 1.3 ± 0.6 nmol/min/mg. In addition, in data set [7], the “conversion rate of ferulic acid (3)” value worked out at 4.49 ± 0.20 nmol/min/mg. Also, the “transformation of the challenging substrates 3 and 7” value in data set [8] is recorded as “optimal”.

B3: 4HPA3H-Y301F/S462A: 4HPA3H double variant, SEQ ID NO:175 (protein, listed as Escherichia coli)
chain: B1 chain with S462A
modifications: 4HPA3H HpaB Y301F/S462A
Regarding B3, the “specific activity towards p-coumaric acid (1)” value in [6] amounted to 1.6 ± 0.3 nmol/min/mg. Moreover, the “conversion rate of ferulic acid (3)” value in data set [7] is 1.06 ± 0.31 nmol/min/mg. The “transformation of the challenging substrates 3 and 7” value in data set [8] was “optimal”.

B4: PrnF: flavin reductase from Pseudomonas protegens Pf-5, cofactor recycling enzyme, SEQ ID NO:176 (protein, listed as Pseudomonas protegens)
chain: MNAATETKVHDLLDAEGRDVRDARELRNVLGQFATGVTVITTRTADGRNVGVTANSFSSLSLSPALVLWSLARTAPSLKAFCSASHFAINVLGAHQHHLSEQFARAAADKFAGVAHSYGKAGAPVLDDVVAVLVCRNVTQYEGGDHLIFIGEIEQYRYSGAEPLVFHAGQYRGLGSNRAESVLKHE
modifications: flavin reductase PrnF
For the molecule B4, the “activity in reduction of FAD with NADH” value in [9] was 16,660±1,600 nmol min^−1 mg^−1.

Values taken from patent US10988786B2, “Mutant 4-hydroxyphenylacetate 3-hydroxylases and uses thereof” (SYMRISE AG, priority 2015, dated 2021).
